B1: wild type human cystatin C (other)
chain: SSPGKPPRLVGGPMDASVEEEGVRRALDFAVGEYNKASNDMYHSRALQVVRARKQIVAGVNYFLDVELGRTTCTKTQPNLDNCPFHDQPHLKRKAFCSFQIYAVPWQGTMTLSKSTCQDA
B2: urinary cystatin C (Calbiochem Biosciences) (other)
chain: B1 chain
B3: variant human cystatin C (L68Q, HCHWA-I variant) (other)
chain: B1 chain with L68Q

Changes are numbered by the printed parent chain. Names may count otherwise.

In the first assay the target is Aβ1-40 synthetic peptide (UniProt P05067 672-711). The experiment in a line: ELISA.
Sequence of Aβ1-40 synthetic peptide (P05067 672-711): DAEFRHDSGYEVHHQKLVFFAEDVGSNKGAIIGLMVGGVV
In turn, B1 came in with a Kd of 16.4 nM.

In turn, B2 returned a dissociation constant (Kd) of 9 nM.

In turn, B3 displayed a Kd of 9.2 nM.

The target in another assay is Aβ1-42 synthetic peptide (UniProt P05067 672-713). The experiment in a line: ELISA.
Sequence of Aβ1-42 synthetic peptide (P05067 672-713): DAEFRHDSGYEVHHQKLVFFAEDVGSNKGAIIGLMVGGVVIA
Regarding B1, the Kd was found to be 10.6 nM.

For B2, the Kd is 6.6 nM.

With B3, the Kd was determined as 5.9 nM.

Source of the values: patent US7790673 (dated 2010).
